Assay results: US7371551B1, “Feedback-resistant homoserine transsuccinylases” (priority 2002, dated 2008)
Substitutions are numbered along the chain they refer to.

B1: pSLmetAH: MetA variant with His instead of Asp at position 101 (protein, UniProt P07623 2-309, looked up, variant D101H)
Homoserine …: PIRVPDELPAVNFLREENVFVMTTSRASGQEIRPLKVLILNLMPKKIETENQFLRLLSNSPLQVDIQLLRIDSRESRNTPAEHLNNFYCNFEDIQDQNFHGLIVTGAPLGLVEFNDVAYWPQIKQVLEWSKDHVTSTLFVCWAVQAALNILYGIPKQTRTEKLSGVYEHHILHPHALLTRGFDDSFLAPHSRYADFPAALIRDYTDLEILAETEEGDAYLFASKDKRIAFVTGHPEYDAQTLAQEFFRDVEAGLDPDVPYNYFPHNDPQNTPRASWRSHGNLLFTNWLNYYVYQITPYDLRHMNPTLD
B2: pSLmetAY: MetA variant with Tyr instead of Asp at position 101 (protein, UniProt P07623 2-309, looked up, variant D101Y)
Homoserine …: B1 Homoserine … with H100Y
B3: pSLmetAS: MetA variant with Ser instead of Asp at position 101 (protein, UniProt P07623 2-309, looked up, variant D101S)
Homoserine …: B1 Homoserine … with H100S
B4: pSLmetAC: MetA variant with Cys instead of Asp at position 101 (protein, UniProt P07623 2-309, looked up, variant D101C)
Homoserine …: B1 Homoserine … with H100C
B5: pSLmetAA: MetA variant with Ala instead of Asp at position 101 (protein, UniProt P07623 2-309, looked up, variant D101A)
Homoserine …: B1 Homoserine … with H100A
B6: pSLmetAI: MetA variant with Ile instead of Asp at position 101 (protein, UniProt P07623 2-309, looked up, variant D101I)
Homoserine …: B1 Homoserine … with H100I

Experiments:
[1] = molecular target: T1, E. coli homoserine transsuccinylase (MetA, SEQ ID No. 2) variant pSLmetA*L, Tyr294 replaced with Leu (Escherichia coli, UniProt P07623, Y294L); test: biochemical; settings: pH 7.6, read-out: Activity (%) in the presence of 1 mM L-methionine
T1 construct: made in house; host or cells: E. coli W3110 (ATCC 27325), cell extract
From the text: (§1) Any method which enables the activity of the enzyme to be determined in the presence of L-methionine or SAM can be used for determining the sensitivity of the homoserine transsuccinylase to L-methionine and/or SAM. For example, the homoserine transsuccinylase activity can be determined by following the method described by Kredich and Tomkins for determining the activity of serine acetyltransferases (Kredich N. M. and Tomkins G. M., J. Biol. Chem. 241, 4955-4965 (1966)). The enzyme activity is measured in an assay sample which contains homoserine and succinyl-CoA. The reaction is started by adding enzyme and monitored in a spectrophotometer by way of the decrease in the extinction at 232 nm which results from cleavage of the thioester bond in the succinyl-coenzyme A. The described test is suitable for determining the sensitivity of the homoserine transsuccinylases to methionine. The inhibition of homoserine transsuccinylase activity is tested in the presence of different concentrations of L-methionine in the reaction mixture.
(§2) The activity, and the influence of L-methionine on the activity, of the different homoserine transsuccinylases were determined by means of an enzyme test using cell extracts in which the respective proteins had been produced. For this, the corresponding plasmids, encoding altered homoserine transsuccinylases, were introduced, by transformation, into the E. coli strain W3110 (ATCC 27325) using methods known to the skilled person. The transformation mixture was spread on LB-tetracycline agar plates (10 g of tryptone/l, 5 g of yeast extract/l, 5 g of NaCl/l, 15 g of agar/l and 15 mg of tetracycline/l) and incubated at 37° C. overnight. The resulting transformants were grown in SM1 medium (for 1 l of medium: CaCl2×2H2O, 0.0147 g, MgSO4×7H2O, 0.3 g, Na2MoO4×2H2O, 0.15 mg, H3BO3, 2.5 mg, CoCl2×6H2O, 0.7 mg, CuSO4×5H2O, 0.25 mg, MnCl2×4H2O, 1.6 mg, ZnSO4×7H2O, 0.3 mg, KH2PO4, 3.0 g, K2HPO4, 12.0 g, (NH4)2SO4, 5 g, NaCl, 0.6 g, FeSO4×7H2O, 0.002 g, Na3-citrate×2H2O, 1 g, glucose, 5 g, tryptone, 1 g, yeast extract, 0.5 g), centrifuged down at an absorption of approx. 0.8 at 600 nm, washed in 50 mM Tris pH 7.5, and centrifuged down once again. The cells were resuspended in 50 mM Tris/Cl, pH 7.5, 2 mM dithiothreitol, 0.5 mM phenylmethylsulfonyl fluoride and disrupted in a French press. The supernatant from a further centrifugation was used as the enzyme extract in the test. The enzyme activity was determined, in a mixture containing 50 mM Tris/Cl, pH 7.6, 1 mM homoserine and 0.1 mM succinyl-CoA, by photometrically quantifying, by means of the decrease in the extinction at 232 nm, the coenzyme A formed in the reaction, following the method described by Kredich and Tomkins for determining the activity of serine acetyltransferases (Kredich N. M. and Tomkins G. M., J. Biol. Chem. 241, 4955-4965 (1966)). The effect of added L-methionine on the activity was determined and the inhibitability was quantified as a Ki value. The Ki which is determined is the concentration of L-methionine at which the activity of the homoserine transsuccinylase is only 50% of its activity in the absence of L-methionine.

[2] = molecular target: T2, E. coli homoserine transsuccinylase (MetA, SEQ ID No. 2) variant pSLmetAN, Asp101 replaced with Asn (Escherichia coli, UniProt P07623, D101N); test: biochemical; settings: pH 7.6, read-out: Activity (%) in the presence of 1 mM L-methionine
T2 construct: made in house; host or cells: E. coli W3110 (ATCC 27325), cell extract
From the text: as §1, §2

[3] = molecular target: T3, E. coli homoserine transsuccinylase (MetA, SEQ ID No. 2) variant pSLmetA*K, Tyr294 replaced with Lys (Escherichia coli, UniProt P07623, Y294K); test: biochemical; settings: pH 7.6, read-out: Activity (%) in the presence of 1 mM L-methionine
T3 construct: made in house; host or cells: E. coli W3110 (ATCC 27325), cell extract
From the text: as §1, §2

[4] = molecular target: T4, E. coli homoserine transsuccinylase (MetA, SEQ ID No. 2) variant pKP446, Tyr294 replaced with Cys (Escherichia coli, UniProt P07623, Y294C); test: biochemical; settings: pH 7.6, read-out: Activity (%) in the presence of 1 mM L-methionine
T4 construct: made in house; host or cells: E. coli W3110 (ATCC 27325), cell extract
From the text: as §1, §2

[5] = molecular target: T5, E. coli homoserine transsuccinylase (MetA, SEQ ID No. 2) variant pSLmetA*Q, Tyr294 replaced with Gln (Escherichia coli, UniProt P07623, Y294Q); test: biochemical; settings: pH 7.6, read-out: Activity (%) in the presence of 1 mM L-methionine
T5 construct: made in house; host or cells: E. coli W3110 (ATCC 27325), cell extract
From the text: as §1, §2

[6] = molecular target: T6, E. coli homoserine transsuccinylase (MetA, SEQ ID No. 2) variant pSLmetA*P, Tyr294 replaced with Pro (Escherichia coli, UniProt P07623, Y294P); test: biochemical; settings: pH 7.6, read-out: Activity (%) in the presence of 1 mM L-methionine
T6 construct: made in house; host or cells: E. coli W3110 (ATCC 27325), cell extract
From the text: as §1, §2

[7] = molecular target: T7, E. coli homoserine transsuccinylase (MetA, SEQ ID No. 2) variant pSLmetA*A, Tyr294 replaced with Ala (Escherichia coli, UniProt P07623, Y294A); test: biochemical; settings: pH 7.6, read-out: Activity (%) in the presence of 1 mM L-methionine
T7 construct: made in house; host or cells: E. coli W3110 (ATCC 27325), cell extract
From the text: as §1, §2

[8] = molecular target: T8, E. coli homoserine transsuccinylase (MetA, SEQ ID No. 2) variant pSLmetA*0, amino acid 294 (Tyr) deleted (Escherichia coli, UniProt P07623, DEL294-294); test: biochemical; settings: pH 7.6, read-out: Activity (%) in the presence of 1 mM L-methionine
T8 construct: made in house; host or cells: E. coli W3110 (ATCC 27325), cell extract
From the text: as §1, §2

[9] = system: homoserine transsuccinylase; test: Homoserine transsuccinylase enzyme test using cell extracts, decrease in extinction at 232 nm, with and without L-methionine; assay type: biochemical, E. coli; settings: for Activity (%) in the presence of 1 mM L-methionine: activity in the absence of L-methionine corresponds to 100%; for Activity (U/mg): cell extract of E. coli W3110 transformants, 1 mM homoserine, 0.1 mM succinyl-CoA, 50 mM Tris/Cl pH 7.6; for Ki: concentration of L-methionine at which activity is only 50% of activity in its absence
From the text: as §1, §2

[10] = system: homoserine transsuccinylase; test: Homoserine transsuccinylase activity test (Lee et al.), 5,5'-dithiobis(2-nitrobenzoic acid), absorption at 412 nm, with and without SAM; assay type: biochemical, E. coli; settings: for Activity (%) in the presence of 1 mM SAM: activity in the absence of SAM corresponds to 100%; for Ki: SAM (Cl salt, Sigma) as inhibitor; for Activity (U/mg): cell extract, 3 mM homoserine, 0.3 mM succinyl-CoA, 50 mM potassium phosphate buffer pH 7.5
Procedure: In order to determine the sensitivity of the activity of the different homoserine transsuccinylases to SAM, it is possible, for example, to carry out an activity test as described in Lee L. W. et al., J. Biol. Chem. 241, 5479-5480 (1966). In this method, the enzyme extract is incubated with homoserine and succinyl-CoA. After various times, a part of the test assay sample is stopped by adding it to a mixture of ethanol, water, and 5,5′-dithiobis(2-nitrobenzoic acid). The absorption is determined photometrically at 412 nm. The described test is suitable, for example, for determining the sensitivity of the homoserine transsuccinylases to SAM.
The influence of SAM on the activities of the different homoserine transsuccinylases was determined by quantifying the activity in the presence of different concentrations of SAM (Cl salt, Sigma). The cell extracts were grown and prepared as described in Example 3. The activity test was carried out as described in Lee L. W. et al., J. Biol. Chem. 241, 5479-5480 (1966), with the enzyme extract being incubated with 50 mM potassium phosphate buffer, pH 7.5, 3 mM homoserine and 0.3 mM succinyl-CoA. After various times, 100 μl volumes of test mixture were stopped by adding them in each case to a mixture of 400 μl of ethanol, 400 μl of water and 100 μl of 10 mM 5,5′-dithiobis(2-nitrobenzoic acid). After the resulting mixture had been incubated at room temperature for 5 minutes, the absorption was determined photometrically at 412 nm. After the protein concentration had been determined, the enzyme activity was calculated using the extinction coefficient. The Ki was determined as a measure of the ability of SAM to inhibit the activity.

T1 sequence (P07623 2-309 Y294L): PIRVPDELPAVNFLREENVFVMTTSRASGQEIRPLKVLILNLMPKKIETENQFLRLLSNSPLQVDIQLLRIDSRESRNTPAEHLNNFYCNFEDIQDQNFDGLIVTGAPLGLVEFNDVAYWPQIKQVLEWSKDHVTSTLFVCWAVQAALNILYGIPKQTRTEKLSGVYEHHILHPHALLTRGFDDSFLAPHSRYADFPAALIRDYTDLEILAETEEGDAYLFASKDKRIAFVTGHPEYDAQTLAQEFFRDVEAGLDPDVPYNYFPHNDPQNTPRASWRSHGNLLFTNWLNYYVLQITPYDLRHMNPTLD
T6 sequence (P07623 2-309 Y294P): as the sequence (P07623 2-309 Y294L) above, with L293P counted along it
T7 sequence (P07623 2-309 Y294A): as the sequence (P07623 2-309 Y294L) above, with L293A counted along it
T8 sequence (P07623 other isoform, or with tags, fused parts or gaps DEL294-294): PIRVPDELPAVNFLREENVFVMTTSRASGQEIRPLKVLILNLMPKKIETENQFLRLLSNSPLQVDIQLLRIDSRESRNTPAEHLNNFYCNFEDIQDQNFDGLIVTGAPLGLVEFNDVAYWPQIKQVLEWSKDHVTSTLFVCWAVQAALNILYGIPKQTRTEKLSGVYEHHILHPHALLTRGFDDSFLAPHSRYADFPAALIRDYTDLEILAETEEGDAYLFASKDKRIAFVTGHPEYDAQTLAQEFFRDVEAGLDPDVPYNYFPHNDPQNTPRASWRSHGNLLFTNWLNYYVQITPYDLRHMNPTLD
T5 sequence (P07623 2-309 Y294Q): as the sequence (P07623 2-309 Y294L) above, with L293Q counted along it
T3 sequence (P07623 2-309 Y294K): as the sequence (P07623 2-309 Y294L) above, with L293K counted along it
T2 sequence (P07623 2-309 D101N): as the sequence (P07623 2-309 Y294L) above, with D100N, L293Y counted along it
T4 sequence (P07623 2-309 Y294C): as the sequence (P07623 2-309 Y294L) above, with L293C counted along it

| Molecule | activity at 1000 µM [1] | activity at 1000 µM [2] | activity at 1000 µM [3] | activity at 1000 µM [4] | activity at 1000 µM [5] | activity at 1000 µM [6] | activity at 1000 µM [7] | activity at 1000 µM [8] | Activity (%) in the presence of 1 mM L-methionine [9] | Activity (U/mg) [9] | Ki [9] | Activity (%) in the presence of 1 mM SAM [10] | Ki [10] | Activity (U/mg) [10] |
| --- | --- | --- | --- | --- | --- | --- | --- | --- | --- | --- | --- | --- | --- | --- |
| CSCC[C@H](N)C(=O)O [L-methionine] | 89% | 86% | 92% | 96% | 95% | 91% | 94% | 98% | – | – | – | – | – | – |
| B1 | – | – | – | – | – | – | – | – | 90% | 0.045 U/mg | 12 mM | 93% | 16 mM | 0.27 U/mg |
| B2 | – | – | – | – | – | – | – | – | 93% | 0.094 U/mg | 10 mM | 95% | 14 mM | 0.61 U/mg |
| B3 | – | – | – | – | – | – | – | – | 89% | 0.027 U/mg | 7.5 mM | – | 10 mM | 0.15 U/mg |
| B4 | – | – | – | – | – | – | – | – | 92% | 0.084 U/mg | 5 mM | 91% | 7 mM | 0.51 U/mg |
| B5 | – | – | – | – | – | – | – | – | 96% | 0.031 U/mg | 6 mM | 90% | 8 mM | 0.20 U/mg |
| B6 | – | – | – | – | – | – | – | – | 95% | 0.107 U/mg | 9.5 mM | 93% | 12 mM | 0.68 U/mg |
